Legend:
Test in all cases: SPR; Biacore T200; ICAM-1-Fc proteins captured on Protein A on a CM5 chip (1108 ± 108 RU); DBLβ domains flowed as twofold dilution series 1000-7.81 nM at 30 µl/min, 240 s association, 600 s dissociation; 10 mM HEPES pH 7.2, 250 mM NaCl, 0.05% Tween-20; global 1:1 model; 1 mg/ml ssDNA added to BC12a DBLβ
[1] = molecular target: ICAM-1 S22A mutant Fc fusion protein (UniProt P05362)
[2] = molecular target: ICAM-1 L44A mutant Fc fusion protein (UniProt P05362)
[3] = molecular target: ICAM-1 L42A mutant Fc fusion protein (UniProt P05362)
[4] = molecular target: ICAM-1 domains 1-5 Fc fusion protein (reference, wild type) (UniProt P05362)
[5] = molecular target: ICAM-1 Kilifi (K29M) Fc fusion protein (UniProt P05362)

| Substance | % ICAM-1^D1D5 binding [1] | Kd [1] | % ICAM-1^D1D5 binding [2] | % ICAM-1^D1D5 binding [3] | Kd [4] | koff [4] | kon [4] | % ICAM-1^D1D5 binding [5] |
| --- | --- | --- | --- | --- | --- | --- | --- | --- |
| IT4var13 DBLβ domain (from UniProt A3R6S0 1-3274) (domain or fragment) | 94.5% | 9.82 nM | 10% | 3.1% | 3.45 nM | 0.000125 s⁻¹ | 36100 M⁻¹ s⁻¹ | 8.9% |
| J1a DBLβ domain (PfEMP1 of the dominantly expressed var gene of isolate J1) (domain or fragment) | 10.9% | – | 2.7% | 1.4% | 51.7 nM | 0.00153 s⁻¹ | 29600 M⁻¹ s⁻¹ | 5.4% |
| BC12a DBLβ domain (PfEMP1 of the dominantly expressed var gene of isolate BC12) (domain or fragment) | – | – | – | – | 197 nM | 0.000944 s⁻¹ | 4800 M⁻¹ s⁻¹ | – |
